System: ALPP/ALPPL2-expressing HEK293 cells
Assay: Flow cytometry and saturation binding of mouse antibodies
Parameters: species or system human
Conditions: flow cytometry
Description: Cynomolgus ALPP, human ALPP, ALPPL2, ALPI and ALPL-expressing HEK293 cells were used to evaluate specificity and binding affinity. Briefly, one hundred thousand target-expressing HEK293 cells were transferred to 96-well plates. Cells were pelleted by centrifugation and resuspended in 100 μL of PBS+2% w/v BSA. After blocking, cells were resuspended in PBS+2% w/v BSA with unlabeled monoclonal anti-ALPP/ALPPL2 antibodies ranging in concentration from 8 pM to 666 nM and incubated on ice for 30 minutes. Cells were washed twice in PBS and resuspended in R-PE labeled secondary goat anti-human or anti-mouse antibodies (Jackson Immunoresearch, West Grove, PA) for 30 minutes on ice. Specificity of monoclonal antibodies for human and cynomolgus ALPP and ALPPL2, but not other members of this alkaline phosphatase family was confirmed by flow cytometry. Fluorescence was analyzed using an Attune NxT flow cytometer, and the percent of saturated fluorescent signal was used to determine percent bound and to subsequently calculate apparent KD.

B1: 12F3: murine anti-ALPP/ALPPL2 monoclonal antibody selected for humanization (antibody, V domains shown)
VH: EVKLVESGGGLVQPGGSLSLSCAASGFTFTDYYMSWVRQPPGKALEWLALIRNKATGYTTEYSASVKGRFTISRDNSQSILYLQMNALRAEDSATYYCARASFYYDGKVLAYWGQGTLVTVSA
VL: DTQMTQSPSSLSASLGGKVTITCKASQDINKYIAWYQYKTGKGPRLLIHYTSTLQPGIPSRFSGSGSGRDYSFSISNLEPEDIATYYCLQYDNLYTFGGGTKLEIK
saturation levels for ALPP: higher saturation levels for ALPP than SG84-1F7

— US20250276076A1, “ANTI-ALPP/ALPPL2 ANTIBODIES AND ANTIBODY-DRUG CONJUGATES” (SEAGEN INC., priority 2021, published 2025)
